# Experiment: label from the status in PepcDB records
row,Sequence,protein production
1,MNAYLSMNSDWRASMTQTVLVLGASGRFGRNAAEAFGRAGWTVRQFDRKRDDLDAAARGADVIVNAWNPPYPDWAATVPGLHARVIKTAQATGATVIIPGNVYVFGADTPAPWGPDSPHAATNPLGRIRIDMEAAYRASGVRTILLRAGDFLDTCASGNWFDQVMIKRLDKGRFTYPGNPDIPHAWAYLPDLARATVTLSERRETLPVFCDLTYPGYTMTGRQIATGLEQVTGRRVALKRMNWLPLHLARPVWSLAGSLLEMRYLWNTPHSLDGAAFAKVLPEFVQTPFEQALASAIPARLLAAQVHPDQAVAAGL,failed
2,MNFKKLSNAKVSVMAVVLSVGILSGYSALNKQVTLVVRGEERTISTFSSNVGDLLESQNISYDANDIVTLDENTKLSNGDKIEVIDVKEKTVVETKDIPFEVTVVEDGSLLKGDSKVKEEGKSGKSELIYKETYHNGKKVEKEFVKKVVKAEPVNKVVSKGTKVEMQVASSRGESSRRMASSSSSSSSSNNGKNMRVVATAYTGHSITATGTKPKWGTIAVDPKVIPYGTKVYIPQFDMVFTAEDCGGAIKGNKIDIYMNDSKTVYNWGRKTIDIRILK,failed
3,MSDLTKVFIAPEEIVNFLKKNMQLKEVYQKILFQRLILQVAEARGITVTTEEIEAEANRQRREKRLEKAADTMAWLADQLASPEDWEMGIRDRLLSQKLANFLFADKVEAFFIQNQLEFEQVSLYQIIVDSEKLAQEIYYQIEDEEISFYEAAYLYDVDAVRRQRCGYEGKVYRFSLPVNVATVIFRTSPKQLISPLQTEQGYHLFMVEEFIPAELTGERYQEILNNMFNQWLITELNKILN,failed
4,LSQNTLAENIYNIIISDISRKWALKDISDSLYMSCSTLKRKLKQEHTSFSEVYLNARMNKATKLLRNSEYNITRVAYMCGYDSASYFTCVFKKHFKTTPSEFLAFLSSSRHQ,failed
5,MTKGSRKSRRRQQAPTKARPEQGRSAPAQRPAPTFRLRTAALLAIGSGALFFLLASGLSWFKTSEISSPPTREAELSFVGSQACSGCHQAETRLWQSSQHRHAMDHATDTSVRGDFNDAAFEYAGTRSRFFRKDRKFLIETDGPDGKLATFEVKYAFGVDPLQQYLIEFPDGRIQALSIAWDTRPKDQGGQRWFHLYPDAAVTSSDPLHWTRLNQNWNFMCAECHSTNVHKNYDAARDRFATSFSEISVGCEACHGAGSRHVSWAQQKPAARGPDNGLLVRFDERSGITWSADAETMTPKRSAPPATLRKEVEVCGRCHARRGQFSEDWRPGKSLSETHRVSLLDRQSFHADGQMRDDEETYNYASFKQSKMFAKGVTCSDCHDPHSAALKAPGDGVCAQCHAPAKYEAAAHRQHANVSPPPGCASCHMPERRYMVVDRRHDHGFRIPRPDLSVQLGTPNACNDCHRDKPAAWAARQVETWFGPQRLGFQAYARAFHAAWSEAADAQALLSAVVANDAPGIVRAGALAELPAPDADLIRRALSDPDPLVRLGALDALEGIPADQLWTLASAQLTDPVRGVRIRAAELLASVPPSRQPAADRNKFTQAAAEFVAAQKLNADRPDARAALGNFLARQAGAAEAEAEYRAALRLDPSFPPAAINLSDLYRQLGRDSDGERILRETLTKSGQNASLHHALGLVLVREKRADEALGELRQAAELDPGQPRYAYVYAVGLHSSGRRDDALAVLRTSLQVHPNDRESVSAALALSREKGDSASALGYAEQLSRLMPGNREIEDLIKQLKQ,failed
6,MDMYHTKILKAIESEDYISVRRRVLRQLVESLIYEGIITPARIEKEEQILFLIQGLDEDNKSVTYECYGRERITFGRISIDSLIVRVQDGKQEIQSVAQFLEEVFRVVNVEQTKLDSFIHELEQTIFKDTIAQYERCNKLKYTQKSYDELENHLIDGHPYHPSYKARIGFQYRDNFRYGYEFMRPIKLIWIAAHKKNATVGYENEVIYDKILKSEVGERKLEAYKERIHSMGCDPKQYLFIPVHPWQWENFIISNYAEDIQDKGIIYLGESADDYCAQQSMRTLRNVTNPKRPYVKVSLNILNTSTLRTLKPYSVASAPAISNWLSNVVSQDSYLRDESRVILLKEFSSVMYDTNKKATYGSLGCIWRESVHHYLGEQEDAVPFNGLYAKEKDGTPIIDAWLNKYGIENWLRLLIQKAIIPVIHLVVEHGIALESHGQNMILVHKEGLPVRIALKDFHEGLEFYRPFLKEMNKCPDFTKMHKTYANGKMNDFFEMDRIECLQEMVLDALFLFNVGELAFVLADKYEWKEESFWMIVVEEIENHFRKYPHLKDRFESIQLYTPTFYAEQLTKRRLYIDVESLVHEVPNPLYRARQLNIQKSVATGGNYANC,failed
7,MSGILALGAYVPERVMTNADFEAYLDTSDEWIVTRTGIKERRVAAEDEYTSDLAFKAVEDLLRRHPGALEGVDAVIVATNTPDALFPDTAALVQARFGLKAFAYDLLAGCPGWIYALAQAHALVEAGLAQKVLAVGAEALSKIIDWNDRATAVLFGDGGGAAVVGKVREGYGFRSFVLGADGTGAKELYHACVAPRLPDGTSMKNRLYMNGREVFKFAVRVMNTATLEAIEKAGLTPEDIRLFVPHQANLRIIDAARERLGLPWERVAVNVDRYGNTSTASIPLALKEALDAGRIREGDHVLLVSFGAGLTWAAAVLTWGGA,not failed
8,LGNAMNIPAPIRIEAFDNSNIMGTNPVSAMVVFIDGRPAKNEYRKYKIKTVQGPDDYASMREVIYRRYSRVLKEGLPFPDLILIDGGKGQVDVAKDVLANQLGVDIPVAGLAKNDKHKTSELLFGPNLEVVPLERNSQEFFLLQRIQDEVHRFAI,not failed
9,MSIIEDNKISFVIPTINEEKTIGSVIDGIHENFPNAEIILVDTNSTDKTKEIAKSKGATVIEEPRKGYGRAYQTGIPAAKGDIIVCMDGDGTYPTDIVKPLIEILILDKVDFISCDRITFRTSTNYTTLHYVGNMVLNLTIRILFKVRMVDSQSGMWIFRSELYKKMKNLGYGMSFSQNIKIEAVRHGVFIEIPIRYGVRITKPKLKTWHDGFHNLFALFIKRVSELEHHHHHH,not failed
10,MKDMQTKIVMIGILLSTGIMLRAQDNGGCEDCPAFNAGGKVEVRGVKERIIGDLSQPVAVRVRTLIQQMTLAEKVAQLVSESDSIPRLNLPAYNYWNECLHGVARAGEVTVFPQAINLASTWDTVLVKRVASAISTEARLKYLEIGKGLTYWSPTINMARDPRWGRNEETYGEDPHLTSRLGVAFVKGLQGDHPTYLKTVATIKHFVANNEENNRFSSSSQIPTKQLYEYYFPAYEACVKEANAQSVMTAYNAFNGVPPSGSHWLLDDVLRKEWGFDGFVVSDCGAIGVMNWQHRVVNSLEEAAALGVNSGCDLECGTTYKEKLVQAVEQGLISEAAIDRALTRVLTARFKLGEFDPMELVPYNHYDKKLLAGKKFAELAYEAAVKSVVLLKNDALLPLNKEKIKSVAVVGPFADYNYLGGYSGQPPYSVSLLKGVKELIGKKGKVTYLNGMGTSADSIAQVVKGADIVLVALGSDEKMARENHDMPSIYLPEEQEKFLKKIYQVNPRIVLVFHTGNPLTSEWADTHILAIMQAWYPGQEAGRALANLLFGNENPSGKLPMTIYKTEEQLPDILDFDMWKGRTYRYMKGEPLYGFGHGLSYTSFEFDNIQGNDTLQPDAILQCSVELSNSGQLAGEEVVQVYVSRENTPVYTYPLKKLVAFKKVKLASGEKKKVDFTIAPRELSVWEDGKWRMLSGKYTLFIGSGQPGLAKGITKGFEVKIR,failed
11,MNDFTFRCERPSLRLFAAAVVAVLLGLAPASSESVRKSGYAIGTESCGSGDLAFPRLQIDMKAGFCAGLVASEEDRLKFPRSIVQVPGRDLFVVADMGGWGHTDGRLLLLDPHAPPGQRFKELLTGLEYPFGLVIGPDRKLYASTAEAIFRFDPLADNPRGTVETIIRHMPGRRITLPDGTRLDESAHPLKQFVFDRNGRLFVNVGSHSDDCITPAPITKPCAAAEGASAMAAIWLFTPPSGGVFPALRPNDPDPPHTVYARGLRNSMALALHPNFPDAGYAFLQGENGRDLPDIFKPNEEINAIEQGRHYGWPYCYDLSTPSPEFRSVLQSGTYKSLCTANALYKPPFSLLPPHGAPLAMLYYHGAKFPELEGKLLVGLHGYRPTGSRVLAYDVDDHGFPRPSPAPVRYHVSCAADPTHSFQTDAGEVAAAPFEELIAGWHRVNGARPQGAPVGMTVAEDGAIWLVEDKNQTVIRIDRAAGDAPQPLPCDTRSQAMIDQLAAFIARDAQNSVRLTTLRKGLVEKHCLGCHSDFGLKAGQSEAEKDATVLRFMLSQDGWIYPGDPDSGRLRTRLRGLGAEKLMPPGGESLPKTEPGYARLLDTADLLVARMVPGTRIRIKAGPPQRRFFGKTNKECGEIPAAKVVVVTQRSAVDKPGFSRFFRPADPYLNGECTDDDGYYIRQEFLVPVQ,failed
12,MEDIFSKRKTLRTIKADTSDYFIPLFHTLAVFLSTKETIITKRFLEHIMKNLIALTLLLGGSTLLCAQKPAKTPATYKPVKSEMYRKGWIDFNKNGVKDVYEDPSAPLEARIENLLQQMTLDEKTCQMVTLYGYKRVLKDDLPTPEWKELLWKDGIGAIDEHLNGFQQWGLPPSDNAYVWPASRHAWALNEVQRFFVEDTRLGIPVDFTNEGIRGVESYRATNFPTQLGLGHTWNRELIRQVGLITGREARMLGYTNVYAPILDVGRDQRWGRYEEVYGESPYLVAELGIEMVRGLQHNHQVAATGKHFAAYSNNKGAREGMARVDPQMSPREVENIHIYPFKRVIREAGMLGVMSSYNDYDGIPVQGSYYWLTTRLRGEMGFRGYVVSDSDAVEYLYTKHGTAKDMKEAVRQSVEAGLNVRCTFRSPDSFVLPLRELVKEGGLSEEVINDRVRDILRVKFLIGLFDAPYQTDLADADREVEKEENEAIALQASRESIVLLKNAGELLPLDINSTKKIAVCGPNANEEGYALTHYGPLAVEVTTVLEGIQEKTKGKAEVLYTKGCDLVDAHWPESEIIDYPLTDDEQAEIDKAVENARQADVAIVVLGGGQRTCGENKSRTSLDLPGRQLQLLQAIQATGKPVVLILINGRPLSINWADKFVPAILEAWYPGSKGGTALADILFGDYNPGGKLTVTFPKTVGQIPFNFPCKPSSQIDGGKNPGPTGNMSRINGALYPFGYGLSYTTFEYSDLDITPRVITPNESATVRLKVTNTGKRAGDEVVQLYIRDVLSSITTYEKNLAGFQRIHLEPGEAQELSFTIDRKHLELLDADMKWVVEPGDFVLMAGASSEDIRLNGTLTVEDYQTRAKAIEAQKPAKRVSASTNPEDAENVLDEKINTAWQGNKGDYITFALKNGAKVDKVAIAFTRDNNLPATFEIQLSGGGGQFLTVYSGTVSEYGKLISYPFKGTTASDLRIVLNDDRVSIAEVKF,failed
13,MAKKKIVAVIQARMGSSRLPGKVLMTVAGKPLLEHIIDRLRRSRTLDDIVIATSDKPCDDPLVDFAQTRGVTLVRGSEDNVLLRFNKAAEEVDADVIIRVTGDAPLVDPEVMDRLVRTLLQEGAEYCTIEAGINSIHEGFCTFTRGALKRLMTEAPDDPVAIEHVTAYFIAHPDKFHIARIPVGNEHRFKGARLSVDTPADVQFFDELYRLLGVPAGDADIADVVRLLRNNPHLLQINQHVYQKKATDRSHKVLIRCDGDSRTGLGHVVRCLALAGELREKQGCGIIFAMASGEPGMKMVRQADFPLERQEDADEGEWMDGLISRHHPDVLILDIRNDLPVEKVDSWREDGILVVGIDDPTPRRLAADLLFYPPIPQISELNWNNFNGEICSGWEWVLLRKQFCAPCPPRNNNPPALLLTMGGSDPANFTVRVLRVLDELQNDFETIVVIGAGFVHEEDLQQFLSQARRHYRIEREVSDMASLMRQADLAIASFGVTAYELAASGVPAVYLCLTPDHARSASKFVDDRLAFSCGVLEECSNERIIESTLSLLDSRELRHEVGRRACATVDGYGATRIATKIVEKLERMHSSHGLEHHHHHH,failed
14,FKDLRLVSYTLLFDFIVSRVIDLIGEGGYAGKGFMIITKRPDQLAKAINDDLGRGVTFISGQGYYSKENLKIIYCIVGRNEIVKTKEMIHRIDPQAFITITEAHEILGEGFTFEKE,failed

# Reference: a protein production outcome set (Wang et al. 2014)
